The values that follow come from paper PMC2063703 (The Journal of Cell Biology, 2006).

To fix the notation:
B1: GST-VSL^Vta1 (domain or fragment)
chain: RASKIEQIQKLAKYAISALNYEDLPTAKDELTKALDLLNSI
B2: GST-VSL^SBP1 (domain or fragment)
chain: EDFARAQKYCKYAGSALQYEDVSTAVQNLQKALKLLTTGRE
B3: GST-Vta1^Δ37–68 (natural protein)
chain: MASNAARVVATAKDFDKVGLGIIGYYLQLYAVELILAEDSDKSLHVMNTLIHDQEKAKIYMLNFTMSLYNEKLKQLKDGPWDVMLKRSLWCCIDLFSCILHLWKENISETSTNSLQKRIKYCKIYLSKLAKGEIGSSDEKTLDYADFADDSEEIKDEDVDHQTSDLENNNNDKVEGLAPKDQTTSYEPVDEVPEFIDDADSVNEEEQTVDKNEDAITKDEQQVVKKEVDLTRPSAPSEPAAAEHKSYTKDELTKIMDRASKIEQIQKLAKYAISALNYEDLPTAKDELTKALDLLNSI
B4: GST-Vta1 (natural protein)
chain: MASNAARVVATAKDFDKVGLGIIGYYLQLYAVELILSEEDRSQEMTALATELLDTIEAFKKEIGGESEAEDSDKSLHVMNTLIHDQEKAKIYMLNFTMSLYNEKLKQLKDGPWDVMLKRSLWCCIDLFSCILHLWKENISETSTNSLQKRIKYCKIYLSKLAKGEIGSSDEKTLDYADFADDSEEIKDEDVDHQTSDLENNNNDKVEGLAPKDQTTSYEPVDEVPEFIDDADSVNEEEQTVDKNEDAITKDEQQVVKKEVDLTRPSAPSEPAAAEHKSYTKDELTKIMDRASKIEQIQKLAKYAISALNYEDLPTAKDELTKALDLLNSI
B5: GST-Vta1^K322A (natural protein)
chain: B4 chain with K322A
B6: Vta1 (purified recombinant, bacterially expressed) (natural protein)
chain: B4 chain
B7: GST-Vta1^S306A (natural protein)
chain: B4 chain with S306A
B8: His6-Vta1 (natural protein)
chain: B4 chain
B9: GST-SBP1 (natural protein)
chain: MAALAPLPPLPAQFKSIQHHLRTAQEHDKRDPVVAYYCRLYAMQTGMKIDSKTPECRKFLSKLMDQLEALKKQLGDNEAITQEIVGCAHLENYALKMFLYADNEDRAGRFHKNMIKSFYTASLLIDVITVFGELTDENVKHRKYARWKATYIHNCLKNGETPQAGPVGIEEDNDIEENEDAGAASLPTQPTQPSSSSTYDPSNMPSGNYTGIQIPPGAHAPANTPAEVPHSTGVASNTIQPTPQTIPAIDPALFNTISQGDVRLTPEDFARAQKYCKYAGSALQYEDVSTAVQNLQKALKLLTTGRE
B10: GST-Vta1^ΔN68 (domain or fragment)
chain: AEDSDKSLHVMNTLIHDQEKAKIYMLNFTMSLYNEKLKQLKDGPWDVMLKRSLWCCIDLFSCILHLWKENISETSTNSLQKRIKYCKIYLSKLAKGEIGSSDEKTLDYADFADDSEEIKDEDVDHQTSDLENNNNDKVEGLAPKDQTTSYEPVDEVPEFIDDADSVNEEEQTVDKNEDAITKDEQQVVKKEVDLTRPSAPSEPAAAEHKSYTKDELTKIMDRASKIEQIQKLAKYAISALNYEDLPTAKDELTKALDLLNSI
B11: Vps4 (enzyme)
chain: MSTGDFLTKGIELVQKAIDLDTATQYEEAYTAYYNGLDYLMLALKYEKNPKSKDLIRAKFTEYLNRAEQLKKHLESEEANAAKKSPSAGSGSNGGNKKISQEEGEDNGGEDNKKLRGALSSAILSEKPNVKWEDVAGLEGAKEALKEAVILPVKFPHLFKGNRKPTSGILLYGPPGTGKSYLAKAVATEANSTFFSVSSSDLVSKWMGESEKLVKQLFAMARENKPSIIFIDEVDALTGTRGEGESEASRRIKTELLVQMNGVGNDSQGVLVLGATNIPWQLDSAIRRRFERRIYIPLPDLAARTTMFEINVGDTPCVLTKEDYRTLGAMTEGYSGSDIAVVVKDALMQPIRKIQSATHFKDVSTEDDETRKLTPCSPGDDGAIEMSWTDIEADELKEPDLTIKDFLKAIKSTRPTVNEDDLLKQEQFTRDFGQEGN
B12: Vps4^E233Q (enzyme)
chain: B11 chain with E233Q

For data set [1], the target named is B12. The data set can be described thus: pull-down.
Data set [2] addresses B12. As to the kind of experiment: SEC. (In gel filtration, larger molecules generally elute earlier.)
Data set [3] concerns the molecule itself. The data set can be described thus: AUC.
In data set [4] the target is Vps4 (yeast) (UniProt P52917).
Data set [5] concerns the molecule itself. The data set can be described thus: SEC.
Data set [6] has as its target B6. As to the kind of experiment: SEC.

Where a chain is given by its changes, count along the chain named. Numbers in names are those of the source.

Turning to B1, in data set [1], the binding result is listed as “binds”. As to B2, the binding result in data set [1] is “binds”. The same measure, in the same setting: next, B3: “binds”; B4: “binds”; B5: “binds”. Consider B6, for which the binding result in data set [2] is “binds”. For B7, in data set [1], the binding result is listed as “binds”.

As to B8, in data set [3], the stoichiometry N (as a rule, the number of molecules, sites or subunits per partner or assembly) was found to be 2.

In the case of B9, the binding result in data set [1] is “binds”. Same read-out and setting: next, B10: “binds”. For the molecule B11, in data set [4], the Km of the Vps4 protein concentration-dependent ATPase activity, with 1 μM Vta1 stood at 0.118 µM; the Km of the Vps4 protein concentration-dependent ATPase activity, with 6 μM Vta1 came out at 0.069 µM; the Km of the Vps4 protein concentration-dependent ATPase activity, without Vta1 is 1.1 µM.

Take B12: the entries for the “stoichiometry N” value in data set [5] and in data set [6] were 2 and around 1, respectively.
